Test results taken from US20160340422A1 (BEIJING HANMI PHARMACEUTICAL, published 2016).

Assays:
[1] = target: T1, Mouse IL-17A (mouse, UniProt Q62386 26-158, limits assumed); test: ELISA, coated mouse IL-17A, HRP anti-mouse IgG
T1 construct: Bought recombinant protein; also called mice IL-17A
T1 sequence (looked up): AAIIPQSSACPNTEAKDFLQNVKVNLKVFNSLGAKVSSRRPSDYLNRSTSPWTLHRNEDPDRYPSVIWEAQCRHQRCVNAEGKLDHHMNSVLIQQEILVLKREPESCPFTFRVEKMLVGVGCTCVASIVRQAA
Procedure: The plated is blocked with PBST comprising 1% BSA, 300 μL/well, and incubated at 25° C. for at least 1 hour. The plate is washed with PBST for 5 times. Samples to be tested is added at a specific concentration, which are diluted in PBST comprising 1% BSA, 100 μL/well, and incubated at 25° C. for 1 hour. The plate is washed with PBST for 5 times. Then a horse radish peroxidase labeled anti-mouse IgG antibody (1:10,000, in PEST comprising 1% BSA) (Abeam, product No. Ab7068) is added, 100 U L/well, and incubated at 25° C. for 1 hour. The plate is washed with PBST for 5 times. […] 1M H₂SO₄is added with 100 μL/well to terminate the colorimetric development. The Absorbance at 450 nm is read on ELISA.

[2] = target: Human IL-17A (human, UniProt Q16552 24-155); test: cell-based or functional assay
Chain of Human IL-17A (Q16552 24-155 limits assumed): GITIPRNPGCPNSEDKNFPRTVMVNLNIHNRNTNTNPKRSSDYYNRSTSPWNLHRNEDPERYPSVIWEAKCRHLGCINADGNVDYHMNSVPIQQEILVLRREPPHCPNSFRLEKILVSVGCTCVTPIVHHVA

B1: Control antibody A (antibody, mouse IgG2a, kappa, V domains shown)
VH: QVQLKESGPGLVQPSQTLSLTCTVSGFSLTNYYVHWVRQPPGKGLEWMGGVWNDGDTSYNSVLRSRLSITRDTSKSQVLLKMSSLQTEDTATYYCAREGREGFVGYYVMDAWGPGASVTVSS
VL: DIQMTQSPSFLSASVGERVTLSCKASQNINKYLDWFQQKLGEAPKLLIYNADNLHTGIPSRFSGSGSFSDFILTISSLQPEDDATYFCLQRESWPYTFGAGTKLELKR
notes: Corresponds to the anti-IL-17A antibody moiety of bifunctional fusion proteins A and C; also called anti-IL-17A antibody (rat 1D10 variable region, mouse IgG2a constant region); anti-IL-17A mAb
- binding result [1]: binds
- IC50 for inhibiting GROα secretion from HT-29 cells induced by IL-17A [2]: 0.532 nM
